Laboratory results from patent US20140235701, “NGF APTAMER AND APPLICATION THEREOF” (RIBOMIC INC., published 2014).
Where a chain is given by its changes, count along the chain named.

T1: NT-4 (neurotrophin-4) (Homo sapiens, UniProt P34130 P34130:81-210)
T1 sequence: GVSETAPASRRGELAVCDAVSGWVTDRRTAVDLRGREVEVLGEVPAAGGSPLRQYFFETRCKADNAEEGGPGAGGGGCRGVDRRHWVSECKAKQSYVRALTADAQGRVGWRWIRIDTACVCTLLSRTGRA

B1: SEQ ID NO: 88(3) (ssRNA)
RNA: GGGUCCUGUUCAAGAGUUUCCGUCUCGUGAACUGUUACCC
modifications: 2'-OMe G1-3,U4,C6,G14,G16,C21,G22,U23,C26,G27,U28,C32,U35,C38-40; other C/U 2'-F, G 2'-OH, dA; 5',3' idT
B2: SEQ ID NO: 89(2) (ssRNA)
RNA: B1 RNA with U10G, C11G, G29C, A30C
modifications: 2'-OMe G1-3,C6,G14,G16,C21,G22,U23,C26,G27,U28,C32,U35,C38-40; other C/U 2'-F, G 2'-OH, dA; 5',3' idT
B3: SEQ ID NO: 87(2) (ssRNA)
RNA: B1 RNA with U9C, A30G, A31G
modifications: 2'-OMe G1-3,U4,C6,G14,G16,C21,G22,U23,C26,G27,U28,C32,U35,C38-40; other C/U 2'-F, G 2'-OH, dA; 5',3' idT
B4: SEQ ID NO: 49 (ssRNA)
RNA: GGGAGAACUUCGACCAGAAGUUUGCACAUCCUGCUGCGUAGUUUCCGUCUACGUGGCUGUUAUGUGCGCAUACAUGGAUCCUC
modifications: 2'-F C/U, dA, 2'-OH G
B5: SEQ ID NO: 52 (ssRNA)
RNA: B4 RNA with U23G, G38A, A51U, C52U
modifications: 2'-F C/U, dA, 2'-OH G
B6: SEQ ID NO: 59 (ssRNA)
RNA: B4 RNA with G47U, A51G, C57U
modifications: 2'-F C/U, dA, 2'-OH G
B7: SEQ ID NO: 51 (ssRNA)
RNA: B4 RNA with U23G, U29C, G36A, U39G, A51C, C52G
modifications: 2'-F C/U, dA, 2'-OH G
B8: SEQ ID NO: 57 (ssRNA)
RNA: B4 RNA with U22A, U23G, A28G, G38A, A51G, C52U
modifications: 2'-F C/U, dA, 2'-OH G
B9: SEQ ID NO: 61 (ssRNA)
RNA: B4 RNA with U23A, A51U, U54C, C57U
modifications: 2'-F C/U, dA, 2'-OH G
B10: SEQ ID NO: 53 (ssRNA)
RNA: B4 RNA with U39C
modifications: 2'-F C/U, dA, 2'-OH G

target: T2, NGF (nerve growth factor) (Homo sapiens, UniProt P01138 P01138:122-241); assay: cell_activity; neurite; TF-1 <0.1; details: tags: R&D Systems; chain copies: 2
T2 sequence (P01138 122-241, one chain of several): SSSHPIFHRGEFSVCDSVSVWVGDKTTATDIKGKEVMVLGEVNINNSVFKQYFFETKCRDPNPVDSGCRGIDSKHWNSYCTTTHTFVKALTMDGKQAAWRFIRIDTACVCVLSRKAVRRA

Binder | IC50
GGGUCCUGUUCAAGAGUUUCCGUCUCGUGAACUGUUACCC (ssRNA, 2'-OMe G1-3,C38-40; other C/U 2'-F, G 2'-OH, dA; 5',3' idT) [SEQ ID NO: 88(2)] | 0.241 nM
GGGUCCUGUUCAAGAGUUUCCGUCUCGUGAACUGUUACCC (ssRNA, as 88(3) plus 2'-OMe U9,U10,C11,G29) [SEQ ID NO: 88(4)] | 0.111 nM
B1 | 0.106 nM
B2 | 0.103 nM
GGGUCCUGUGGAAGAGUUUCCGUCUCGUCCACUGUUACCC (ssRNA, 2'-OMe G1-3,C38-40; other C/U 2'-F, G 2'-OH, dA; 5',3' idT) [SEQ ID NO: 89(1)] | 0.246 nM
GGGUCCUGUUCAAGAGUUUCCGUCUCGUGAACUGUUACCC (ssRNA, 2'-OMe C38-40; other C/U 2'-F, G 2'-OH, dA; 5',3' idT) [SEQ ID NO: 88(1)] | 0.241 nM
GGGUCCUGUGGAAGAGUUUCCGUCUCGUCCACUGUUACCC (ssRNA, as 89(2) plus 2'-OMe G10,G11) [SEQ ID NO: 89(3)] | 0.122 nM
GGGUCCUGCUCAAGAGUUUCCGUCUCGUGGGCUGUUACCC (ssRNA, 2'-OMe G1-3,C38-40; other C/U 2'-F, G 2'-OH, dA; 5',3' idT) [SEQ ID NO: 87(1)] | 0.173 nM
GGGUCCUGCUCAAGAGUUUCCGUCUCGUGGGCUGUUACCC (ssRNA, as 87(2) plus 2'-OMe C9,U10,C11,G29-31) [SEQ ID NO: 87(4)] | 0.113 nM
B3 | 0.107 nM
GGGUCCUGCUCAAGAGUUUCCGUCUCGUGGGCUGUUACCC (ssRNA, as 87(2) plus 2'-OMe G29-31) [SEQ ID NO: 87(3)] | 0.118 nM

target: T2, NGF (nerve growth factor); assay: SPR; more than 40N control; details: tags: R&D Systems; chain copies: 2

Binder | binding result
B4 | binds
B5 | binds
B6 | binds
B7 | binds
B8 | binds
B9 | binds
B10 | binds

target: T1, NT-4 (neurotrophin-4); assay: cell_activity; TF-1; details: tags: R&D Systems; chain copies: 2
Text: Using TF-1 cells, whether NGF aptamer inhibits BDNF, NT-3, NT-4 was examined. Human receptor genes (TrkB, TrkC, p75) for respective neurotrophic factors were introduced into TF-1 cells (ATCC Number: CRL-2003), which is a human erythroleukemic cell line, by using a retrovirus vector to give cells that highly express these receptors stably. TF-1 cells introduced with TrkB and p75 were used for the evaluation of inhibitory activity against BDNF, TF-1 cells introduced with TrkC and p75 were used for the evaluation against NT-3, and TF-1 cells introduced with TrkB alone were used for the evaluation against NT-4. These cells were suspended in an RPMI-1640 medium containing 20% fetal bovine serum, and seeded in a white 96 well flat-bottom plate at 1000 cells (50 μL) per well. Thereto was added a mixed solution 50 μL of human BDNF (final concentration 0.074 nM) or NT-3 (final concentration 0.074 nM) or NT-4 (final concentration 0.071 nM) and the aptamer (final concentration 1 μM-0.01 nM), which had been pre-reacted at room temperature for 30 min in a serum-free RPMI-1640 medium, 3 days later, 100 μL of CellTiter-Glo reagent for CellTiter-Glo Luminescent Cell Viability Assay (manufactured by Promega) was added to each well, chemiluminescence was measured by a microplate reader. With the amount of luminescence per well obtained by the addition of BDNF or NT-3 or NT-4 alone and culture of the cells for 3 days as inhibitory activity 0%, and that of the well obtained by culture for 3 days without addition of BDNF or NT-3 or NT-4 as inhibitory activity 100%, the inhibitory activity of the aptamer was calculated from the amount of luminescence per well obtained by culturing with the addition of BDNF or NT-3 or NT-4 and the aptamer in mixture. When the inhibitory activity was 0 or below, ‘0%’ is indicated. The 50% inhibitory concentration (IC₅₀) was determined from the concentrations at two, above and below points sandwiching the 50% inhibitory activity. An IC₅₀ value indicated as “>X” means that the inhibitory activity was not more than 50% when the indicated concentration X was the maximum measured concentration. N.D. means not measured.

Binder | IC50
GGGUCCUGUUCAAGAGUUUCCGUCUCGUGAACUGUUACCC (ssRNA, as 88(3) plus 2'-OMe U9,U10,C11,G29) [SEQ ID NO: 88(4)] | 300 nM
GGGUCCUGUUCAAGAGUUUCCGUCUCGUGAACUGUUACCC (ssRNA, 2'-OMe C38-40; other C/U 2'-F, G 2'-OH, dA; 5',3' idT) [SEQ ID NO: 88(1)] | < 100 nM
GGGUCCUGCUCAAGAGUUUCCGUCUCGUGGGCUGUUACCC (ssRNA, 2'-OMe G1-3,C38-40; other C/U 2'-F, G 2'-OH, dA; 5',3' idT) [SEQ ID NO: 87(1)] | < 100 nM
